Test results reported in patent US20250320305A1 (Hoffmann-La Roche, published 2025).

What was measured:
[1] = target: T1, biotinylated recombinant human FAP (human, UniProt Q12884 26-760, biotinylated); assay: SPR (Biacore), biotinylated recombinant human FAP
T1 construct: also called biotinylated human FAP

[2] = target: T1, biotinylated recombinant human FAP; assay: SPR (Biacore), biotinylated huFAP on CAPture chip, Fab analyte
Procedure: As running and dilution buffer, HBS-P+ (10 mM HEPES, 150 mM NaCl pH 7.4, 0.05% Surfactant P20) was used. A dilution series of anti-huFAP Fabs (3.7-300 nM, 1:3 dilution) was successively injected for 120 s each, dissociation was monitored for 1800 s at a flow rate of 30 μl/min (single cycle kinetics). The surface was regenerated by injecting 6 M guanidine-HCl, 0.25 M NaOH for 120 s. Bulk refractive index differences were corrected by subtracting blank injections and by subtracting the response obtained from the control flow cell without captured human FAP. Curve fitting was performed using the 1:1 Langmuir binding model within the Biacore evaluation software.

[3] = target: T2, human Fibroblast Activation Protein (FAP) expressed on cells (human, UniProt Q12884 1-760); assay: flow cytometry, human FAP-transfected HEK cells
T2 construct: Cell-surface human FAP on transfected HEK or NIH/3T3 cells; also called huFAP; human FAP-transfected HEK cells
Procedure: (§1) The binding of anti-FAP antibodies with a human IgG1 P329G LALA Fc to human FAP was determined by flow cytometry using human FAP-transfected HEK cells. Briefly, the target cells were harvested with Cell Dissociation buffer, washed with FACS Buffer (PBS+2% FCS+5 mM EDTA+0.25% sodium acide) and seeded into 96-U bottom plates (1×10^5 cells/well). Unlabeled primary antibodies were added to the cells (final concentrations 10 μg/ml to 0.64 ng/ml; 1:5 dilutions) and incubated for 30 min at 4° C. After washing, cells were incubated with a PE-conjugated AffiPure F(ab)₂ Fragment Goat anti-human IgG, Fc□ specific (Jackson Immunoresearch) for 30 min at 4° C. in the dark. Afterwards, cells were washed, fixed and measured using a BD FACS LSR Fortessa™.

[4] = target: T3, cynomolgus FAP expressed on cells (cynomolgus); assay: flow cytometry, cells expressing cynomolgus FAP
T3 construct: whole, on cells

[5] = target: biotinylated recombinant cynomolgus FAP (cynomolgus); assay: SPR (Biacore), biotinylated recombinant cynomolgus FAP
[6] = target: T2, human Fibroblast Activation Protein …; assay: flow cytometry, huFAP-transfected HEK cells
Procedure: as §1

[7] = target: T4, human DPP-IV expressed on transfected HEK cells (human, UniProt P27487 1-766); assay: flow cytometry, human DPPIV-transfected HEK cells
T4 construct: whole, on cells; also called dipeptidyl peptidase IV
T4 sequence (P27487 whole entry): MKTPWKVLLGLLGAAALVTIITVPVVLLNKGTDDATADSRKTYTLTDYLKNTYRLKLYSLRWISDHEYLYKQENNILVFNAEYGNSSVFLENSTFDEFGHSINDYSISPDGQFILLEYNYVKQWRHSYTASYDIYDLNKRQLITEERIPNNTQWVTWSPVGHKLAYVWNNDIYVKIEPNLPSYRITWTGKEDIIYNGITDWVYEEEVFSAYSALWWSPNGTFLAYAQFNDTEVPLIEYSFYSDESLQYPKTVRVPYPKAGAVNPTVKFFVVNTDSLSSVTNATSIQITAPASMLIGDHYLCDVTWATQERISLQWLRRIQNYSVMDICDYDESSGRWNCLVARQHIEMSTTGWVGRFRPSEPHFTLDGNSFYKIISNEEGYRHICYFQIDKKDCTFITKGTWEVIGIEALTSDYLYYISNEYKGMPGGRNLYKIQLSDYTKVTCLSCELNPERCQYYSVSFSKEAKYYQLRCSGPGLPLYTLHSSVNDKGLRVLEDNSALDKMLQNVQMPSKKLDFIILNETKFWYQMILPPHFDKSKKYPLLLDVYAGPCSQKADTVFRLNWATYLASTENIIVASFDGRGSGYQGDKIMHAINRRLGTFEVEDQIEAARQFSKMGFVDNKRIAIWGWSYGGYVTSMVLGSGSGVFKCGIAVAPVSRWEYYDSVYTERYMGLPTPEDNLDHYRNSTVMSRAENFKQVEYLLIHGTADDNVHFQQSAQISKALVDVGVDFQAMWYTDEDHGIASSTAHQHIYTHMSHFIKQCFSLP
Procedure: Binding to human FAP and human DPP-IV was determined by flow cytometry using human FAP or human DPPIV-transfected HEK cells. Briefly, the target cells were harvested with Cell Dissociation buffer, washed with FACS Buffer (PBS+2% FCS+5 mM EDTA+0.25% sodium acide) and seeded into 96-U bottom plates (1×10⁵ cells/well). Unlabeled primary antibodies were added to the cells (final concentration 10 μg/ml) and incubated for 30 min at 4° C. After washing, cells were incubated with a goat anti-mouse IgG-PE F(ab′)₂ (Serotec) for 30 min at 4° C. in the dark. Afterwards, cells were washed, fixed and measured using a BD FACS Canto™ II.

[8] = target: T5, human CD40 expressed on cells (human, UniProt P25942 21-277); assay: flow cytometry, primary human B cells
T5 construct: also called huCD40; Raji cells
Procedure: (§2) Plates were centrifuged 5 minutes at 1700 rpm and supernatants were flicked off. […] All samples were resuspended in 50 μL/well of 4° C. cold FACS buffer containing the bispecific antigen binding molecules (primary antibody) or the isotype control antibody DP47 at the indicated range of concentrations (in duplicates) and incubated for 120 minutes at 4° C. Afterwards the cells were washed three times with 200 μL 4° C. cold FACS buffer. […] Data analysis was performed using the FlowJo version 10 software (FlowJo LLC).

[9] = target: T6, His-tagged human FAP ectodomain (human, UniProt Q12884 27-760); assay: SPR, His-tagged human FAP ectodomain as ligand
T6 construct: also called hu FAP ectodomain+poly-lys-tag+his6-tag; His-tagged FAP antigen

[10] = target: T5, human CD40 expressed on cells; assay: cell-based or functional assay
[11] = target: T2, human Fibroblast Activation Protein …; assay: flow cytometry, NIH/3T3-huFAP cells
Procedure: as §2

B1: P1AD9438_Fab (clone 212 Fab) (Fab, V domains shown)
VH: EVLLQQSGPELVKPGASVKIACKASGYTLTDYNMDWVRQSHGKSLEWIGDIYPNTGGTIYNQKFKGKATLTIDKSSSTAYMDLRSLTSEDTAVYYCTRFRGIHYAMDYWGQGTSVTVSS
VL: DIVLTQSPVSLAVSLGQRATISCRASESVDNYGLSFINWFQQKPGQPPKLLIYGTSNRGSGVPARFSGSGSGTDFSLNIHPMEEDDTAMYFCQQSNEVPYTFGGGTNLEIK
notes: Fab
- Kd [1]: 0.12 nM
- Kd [2]: < 0.01 nM
- koff [2]: < 1e-06 s⁻¹
- kon [2]: 1.06e+06 M⁻¹ s⁻¹

B2: P1AD9438, anti-FAP clone 212 as huIgG1 P329G LALA (antibody, V domains shown)
VH: B1 VH
VL: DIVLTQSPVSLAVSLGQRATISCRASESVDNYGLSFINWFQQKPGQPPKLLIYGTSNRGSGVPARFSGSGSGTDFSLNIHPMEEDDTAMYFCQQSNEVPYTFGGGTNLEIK
- EC50 [3]: 0.12 µg/mL
- EC50 [4]: 0.3 µg/mL
- Kd [5]: 0.14 nM
- EC50 [6]: 0.118 µg/mL

B3: murine anti-human FAP antibody clone 212 (hybridoma-derived) (antibody, IgG1, V domains shown)
VH: B1 VH
VL: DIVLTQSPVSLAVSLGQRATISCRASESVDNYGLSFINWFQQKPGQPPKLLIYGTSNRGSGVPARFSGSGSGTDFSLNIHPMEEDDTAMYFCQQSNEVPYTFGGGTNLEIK
notes: mu IgG1
- binding result [7]: no binding (tested: 10 µg/ml)

B4: P1AE2423, CD40 (P1AE0817) x FAP (P1AE1689) (2+1) C-terminal crossfab fusion (bispecific antibody, human IgG1, kappa, L234A L235A)
light 1: QVQLVQSGAEVKKPGASVKVSCKASGYTLTDYNMDWVRQAPGQGLEWIGDIYPNTGGTIYNQKFKGRVTMTIDTSTSTVYMELSSLRSEDTAVYYCTRFRGIHYAMDYWGQGTTVTVSSASVAAPSVFIFPPSDEQLKSGTASVVCLLNNFYPREAKVQWKVDNALQSGNSQESVTEQDSKDSTYSLSSTLTLSKADYEKHKVYACEVTHQGLSSPVTKSFNRGEC
light 2: DIVMTQTPLSLSVTPGQPASISCRSSQSLVHSNGNTFLHWYLQKPGQSPQLLIYTVSNRFSGVPDRFSGSGSGTDFTLKISRVEAEDVGVYFCSQTTHVPWTFGGGTKVEIKRTVAAPSVFIFPPSDRKLKSGTASVVCLLNNFYPREAKVQWKVDNALQSGNSQESVTEQDSKDSTYSLSSTLTLSKADYEKHKVYACEVTHQGLSSPVTKSFNRGEC
heavy 1: not shown
heavy 2: QVQLVQSGAEVKKPGASVKVSCKASGYSFTGYYIHWVRQAPGQSLEWMGRVIPNAGGTSYNQKFKGRVTLTVDKSISTAYMELSRLRSDDTAVYYCAREGIYWWGQGTTVTVSSASTKGPSVFPLAPSSKSTSGGTAALGCLVEDYFPEPVTVSWNSGALTSGVHTFPAVLQSSGLYSLSSVVTVPSSSLGTQTYICNVNHKPSNTKVDEKVEPKSCDKTHTCPPCPAPEAAGGPSVFLFPPKPKDTLMISRTPEVTCVVVDVSHEDPEVKFNWYVDGVEVHNAKTKPREEQYNSTYRVVSVLTVLHQDWLNGKEYKCKVSNKALGAPIEKTISKAKGQPREPQVCTLPPSRDELTKNQVSLSCAVKGFYPSDIAVEWESNGQPENNYKTTPPVLDSDGSFFLVSKLTVDKSRWQQGNVFSCSVMHEALHNHYTQKSLSLSPG
notes: bivalent for CD40, monovalent for FAP; also called VL-CH1 fused to Fc
- EC50 [8]: 0.095 nM
- Kd [9]: 0.094 nM
- koff [9]: 3.2e-05 s⁻¹
- kon [9]: 340000 M⁻¹ s⁻¹
- EC50, two cell line bridging assay (SEAP of HEK-Blue CD40L reporter cells with FAP-expressing WM-266-4 cells) [10]: 0.0032 nM
- EC50 [11]: 5.19 nM
